The nature of the series: label from the status in PepcDB records.
As to “HERVGNLNQPIEVTALYSFEGQQPGDLNFQAGDRITVISKTDSHFDWWEGKLRGQTGIFPANYVTMN”, the protein production entry is on record as “not failed”.
The same measure for “HLGIPPSGALDQYALRAANLLVGNAPTAAVLECALLGPQLEFQRDALVAVCGARMTPRLEGAEMPLDTSFRVRAGQVLGFDFIRAGARGYLAIDGGIAVPEVLGSRSTYGLGAIGGLQGRRLAEGDLLPLGPASPSAVEGLALPRSLQVEVGGEVSLRVVPGLYVHRLTPDAVERFFAETWTVGSEADRTGYRFKGGTALRFEPREQPFGAGSDPSNIVDACYPIGSIQVPGGLEPIVLHRDAVSGGGYATLGTVISPDLNRLAQMQPNQKGRFVAVSLEEGLEARRRYNWQ”: “failed”.
With “HPEKCSECSYSCSSKAALRIHERIHCTDRPFKCNYCSFDTKQPSNLSKHMKKFHGDM” the entry was “not failed”.
The same measure for “HSAIVILDSRGNIQRFNRLCEDYTGLKEHDVIGQSVFKLFMSRREAAASRRNNRVFFRSGNAYEVELWIPTRKGQRLFLFRNKFVHSGSGKNEIFLICSGTD”: “failed”; for “HYRRALSGPVDPGLAVFSAYWDRGVSCNPAAIAAKLAELAPHIHPVWVVARNKAALLPPGTDHIVPGTRRYWEVMARAKYLVNNVNFPNSVVKRPDAIHLQTHHGTPLKRMGLDQREFPAASKGLDFGALLARIDKWDYSVSANSHSTRMWERAYPSHYISLDHGYPRNDVFYSATADDIRAIRDRLGIPPGRRAILYAPTHRDYEAGWTPRLDLASLADRLGEETVLLVRGHYFYGGAASPLAGLRRSGRVIDVSTYDPVEELCLAADALVTDYSSIMFDYANLNRPIVIYADDWETYAKTRGVYFDLMAEGPGQVTRTQDELAAVFESGAWRDEGARKALSAFRRRFCEFDDGRAAERVVR”: “failed”; for “IDFRPYGGFIFDMDGTLIDTMPAHLAAWQATADRFDFPFCQEWLHSLGGMPSFKIVAELNRHYGLSLDPQTVSKFKMETFAAMELQGDVIQCTGIVLEEYLGQKKIAVGTGSQRESAMRLLSHAGLIDRLDAVVTASDVENHKPCPDTFLLAADRLGIDAQNCLVFEDTELGKRAAHSAGMDCVMVEGNNLV”: “failed”.
“IDLAHPDLALHLHLNRGGAVLSLDGSGVSLHRRGYRAAMGAAPLKENLAAGLIQLTGWDGRMPLVDPFCGSGILLIEAVTMALQQAPGLGRQFGLEGWADFDRELWEREHARARQRRRSDLDLAPVVGYEQDPLIADQARDNIRAAGLDGLISIHSGSFEQQTLPPGPGLLVCNPPYGHRVGSEDDLEQLYRLLGSFVREQASGWQLWLLSGNASLTGALRLKASRRIPVSNGGIDCRWLNYGIR”: the protein production entry was “failed”.
The same measure for “IKENAAQEVLEVQKVIDRLADNGQKALKAFESYNQEQVDNIVHAMALAGLDQHMPLAKLAVEETGRGLYEDKCIKNIFATEYIWNNIKNNKTVGVINEDTQTGVIEIAEPVGVVAGVTPVTNPTSTTLFKAIIAIKTRNPIIFAFHPSAQRCSSEAAKVVYDAAVAAGAPEHCIQWVEKPSLEATKQLMNHDKVALVLATGGAGMVKSAYSTGKPALGVGPGNVPAYIDKTAKIKRSVNDIILSKSFDQGMICASE”: “failed”; for “IKNFLYAWCGKRKMTPAYEIRAVGNKNRQKFMCEVRVEGFNYAGMGNSTNKKDAQSNAARDFVNYLVRINEVKSEEVPAVGIVPPP”: “not failed”; for “IKQMLLDWCRAKTRGYEHVDIQNFSSSWSDGMAFCALVHNFFPEAFDYGQLSPQNRRQNFEVAFSSAETHADCPQLLDTEDMVRLREPDWKCVYTYIQEFYRCLVQKGLVKTKKS”: “not failed”.
With “ILQLTSDTLILVDKNGTCLDIDPHSDLWFLQEDRLLGKNLFNLLPDHTFQKLLPDFRRVTQQGITVNRNYRLPLEGGETYYFKCIMQPYDGDKVLCQYRDIT” the entry was “failed”; with “INKIENYEQSTSQLREEINALYNQVIEVGQALSKQRRIVARELRDHIVSEIQNLQMKDANLEISFKKLEEPNIDGIEFVEFLISPNKGEPLKSLNKIASGGELSRIMLALKSIFVKSRGQTAILFDEVDSGVSGQAAQKMAEKMRDIAEYIQVICISHLPQVASMSDHHLLI”, “failed”.
With “INYYDTYIKTCLDNLKRKNTRRSIKLDGKGEPKGAKRAKPVKYTAAKLHEKGVLLDIDDLQTNQFKNVTFDIIATEDVGIFDVRSKFLGVEMEKVQLNIQDLLQMQYEGVAVMKMFDKVKVNVNLLIYLLNKKFYGK” the entry was “failed”; with “IPKHPDSEAVAPDPFNPAATQLLDDTSWVLSAWKQADGTARAVPSADQGAPITLTLSTSTGQRHASGFSGCNRYMGSYALKDGKLSFGTLGGTRMACMTPGGQIEGAYLNALTHIDRTGVQMRAPQQMQLVLDNGDTLTFDRSTR”, “not failed”.
As for “IPLEQGIEFLSVNVEEDSPVVGKKLKDLPLPRDSIIAAIVRGGVLVVPRGDTEILSGDKLYVIVSAEAKETVEETLLGR”, the protein production result is listed as “not failed”.
The same measure for “IQVDYEDVKLDGYFFSPSWIKGPKPTILALNGGDEWSIENYFWLGPAFISCGYNFMVYDQPGTGLSMYEKGKGRRADSEAFHSRAIDFLLTRPEVDPNKIIVHGESFAAYDSLRFASFDHRIAAVISDGGTHAFDWEAMLKWMPPSLAGHGMRILGAKSLDDFAENPRFAYNLEGVLHQIECPLLVMHGAEEILVQPNPLTQALKNYEQAGSKNKTFFPIEDRRIGGLEHCQVDNINVLHEVVLNWL”: “not failed”; for “ISDQAETPMFNIGSAVPRGELVLAMEKIGKLLQERGGSVVIRGHTDGRQFKGEANDNWRLSMDRAHSAYYMLVRGGLSEERVKQVSGFADRRLQVPSNPLADANRRIEILLEADRG”: “failed”.
The same measure for “ISKASATRHSQLVTHACRLIETSDPVPSLGQLSARLAVSPFHLHRLFKAETGV”: “failed”.
The same measure for “ITSVQPPTGLQEWLKMFQSWSGPEKLLALDELIDSCEPTQVKHMMQVIEPQFQRDFISLLPKELALYVLSFLEPKDLLQAAQTCRYWRILAEDNLLWREKCKEEGIDEPLHIKRRKVIKPGFIHSPWKSAYIRQHRIDTNWRRGELKSPKVLKGHDDHVITCLQFCGNRIVSGSDDNTLKVWSAVTGKCLRTLVGHTGGVWSSQMRDNIIISGSTDRTLKVWNAETGECIHTLYGHTSTVRCMHLHEKRVVSGSRDATLRVWDIETGQCLHVLMGHVAAVRCVQYDGRRVVSGAYDFMVKVWDPETETCLHTLQGHTNRVYSLQFDGIHVVSGSLDTSIRVWDVETGNCIHTLTGHQSLTSGMELKDNILVSGNADSTVKIWDIKTGQCLQTLQGPNKHQSAVTCLQFNKNFVITSSDDGTVKLWDLKTGEFIRNLVTLESGGSGGVVWRIRASNTKLVCAVGSRNGTEETKLLVLDFDVDMK”: “failed”.
“KAEAEQNWWEGPPQDLSVHLWYAGPMERAGAESILANRSDGTFLVRQRVKDAAEFAISIKYNVEVKHIKIMTAEGLYRITEKKAFRGLTELVEFYQQNSLKDCFKSLDTTLQFPFKEPEKRTISR”: the protein production entry was “not failed”.
As to “KAKAAFFDIDGTLYREGLISEVFKKLIKYEIIDEEKWYKEVRPEFEKWDNRKGDYDDYLLKMTEIYVDALNGLSKSQVEFIASQVVNQKGERVYTYTRDRIKWHKERGHKIITISGSPIELVRNMAEKYGFDDYRGAEYLLDENDVYTGEVIPMWDSKSKERAVHELEAKYNIDLGESYAYGDTSGDLTMLKMVGNPVCINPTKELVKEILSDEEVKNKIRIIVERK”, the protein production result was “not failed”.
With “KEKDTIAAEHKQEASVLLNLHRNKINYLIGETMARMTSLSIAIDRPVDIKKMQSILEKTFDSEPRFSGLYFLNAKGDVTASTTELKTKVNLADRSFFIKAKETKKTVISDSYSSRITGQPIFTICVPVLDSKRNVTDYLVAAIQIDYLKNLINLLSPDVYIEVVNQDGKMIFASGQASHAEDQKPVSGYLDDISWNMKVYPNPVTIEEL”, the protein production result was “not failed”.
For the sequence “KEMKQIQNEFKERMDEGELLNCMRCGFCLPSCPTYIESGFQETHSPRGRIALMKAVADGMIEPDEDVERSLSLCLGCRACEPVCPSGVKYGQLLEEARDIIHQNKKHSLGE”, the protein production result is “failed”.
With “KFTELEFHRIIGTGQFGLVRVVRNIKTNEVYALKVMHKAPIVESKQIEHVINERKILEEACTHPFCVRLCGAYQDKASLYLLQEWVPGGELFHHLDVEGAFDEPTAMFYAANVLLALEFLHAKGIVYRDLKPENLLLDTQGYIKMADFGFAKYIGGDKTYTICGTPDYQAPEVIMRRGTTKAADYWALGVLIFEMLVGDPPFKSLTGDPWDTFRRTLSGRFYVPNFISDQAADLIFKLLQVNPDKRLGSDKRLGAEEIKRHRWFSRIDWRALEQKKLPSPFRPRVRNPLDTSNFDNFDN”, the protein production entry is reported as “not failed”.
In the case of “KGDDNYYIIFTSGTTGQPKGVQISHDNLLSFTNWMIEDAAFDVPKQPQMLAQPPYSFDLSVMYWAPTLALGGTLFALPKELVADFKQLFTTIAQLPVGIWTSTPSFADMAMLSDDFCQAKMPALTHFYFDGEELTVSTARKLFERFPSAKIINAYGPTEATVALSAIEITREMVDNYT”, the protein production result was “failed”.
With “KGKIQEADNAAKLSAIKFVLKDPLTGDYLVDEKEIEEIVKKTGIETVVLKEYKEGVVLGPLYEFVTKDGRNAYVLSGYAPGFGGNVTVVACFIKTEDGFMLNSVRVIDYSQETPGLGAKIGEESIQRRFFPVPPEGLKNGLRVDKDAGLPKGSPEELKKQGIVKVSDVMTGATITPRAVVTALNLMYRYLEEVSK” the entry was “not failed”.
The same measure for “KKAVINDSNTPLHLLQPAYQGTYGDLTPEQVKKDIDRVFAYIDKETPARVVDKNTGKVITDYTAMGDEAQLERGAFRLASYEWGVTYSALIAAAETTGDKRYTDYVQNRFRFLAEVAPHFKRVYEEKGKTDSQLLQILTPHALDDAGAVCTAMIKLRLKDESLPVDGLIQNYFDFIINKEYRLADGTFARNRPQRNTLWLDDMFMGIPAVAQMSRYDKEAKNKYLAEAVKQFLQFADRMFIPEKGLYRHGWVESSTDHPAFCWARANGWALLTACELLDVLPEDYPQRPKVMDYFRAHVRGVTALQSGEGFWHQLLDCNDSYLETSATAIYVYCLAHAINKGWIDAIAYGPVAQLGWHAVAGKINEEGQVEGTCVGTGMAFDPAFYYYRPVNVYAAHGYGPVLWAGAEMIRLLNTQHPQMNDSAVQYYQEKQKTTAPIFAVDSE”: “not failed”; for “KKFEQVIYRGITEGKSSNEIREELVHQAGMSSDKAAFIARDQTGTILGQMNSERQKRAGFQAFRWSDSGDERVRDSHRERNGKIYFYADNPLLPGEEYNCRCVAE”: “failed”; for “KLKISEASLEDYSEVVHLFNRNHVYQFPDGRPLTVDDLDLTLKVKEVTHLFLLKNHGVLIGTSAFFKFITYGCLDWNSSFSGFLLIDSKSRSGQAITYLYKTILKKITKLKFSNIYTEISNYNKPSLALSKLNGFKEYDKTYEDILHCRSLRSHL”: “failed”.
The same measure for “KMFFKVIDTLSDNYEKEMLLLEAEAKEQYYQELEKSSREVRKIKHDLKNMLLAICGKAKKQNEISEEIYKIIKELDESDKKIYTSNVVINTIINHKISQAKKLEIKTDVNIKVSKAIHIDYKDAGILLGNILDNAIEACEKIKKKERWIKIDMLHNKNTLFIEVCNSKGKELTNISKSSKSDAHNHGIGISSIKAITKKYDGYVEFVDKGEEFEVVVNLYGMSF”: “failed”; for “KNIEETELVVEEMLEQYPNGKIVRLLFHGEQAKLPIISHIVQEYQVEVSIIQGNIQQTKQGAVGSLYIQLLGEEQNILAAIEGLRKLRVETEVIGNE”: “not failed”.
With “KPIKIRGPSHCAGCKEEIKHGQSLLALDKQWHVSCFKCQTCSVILTGEYISKDGVPYCESDYHAQFG”, the protein production result is recorded as “not failed”.

For the origin of these results see a protein production outcome set (Wang et al. 2014).
